Measured values published in paper PMC10237660.

Target: C-terminal polyP binding domain of the E. coli exopolyphosphatase (EcPPXc) (E. coli strain K12)
Assay: SEC; analytical SE-UPLC, BEH200 4.6 x 300 mm column (Waters), running buffer 10 mM NaH2PO4, 400 mM (NH4)2SO4, pH 6.2; retention time compared with 158 kDa and 44 kDa standards

stoichiometry N: 2
Substance: C-terminal polyP binding domain of the E. coli exopolyphosphatase (EcPPXc) (domain or fragment)
